B1: human T-plastin, full length, wild type [human] / F-actin (filaments of α-actin) [not stated] (parent complex)
chain 1: MDEMATTQISKDELDELKEAFAKVDLNSNGFICDYELHELFKEANMPLPGYKVREIIQKLMLDGDRNKDGKISFDEFVYIFQEVKSSDIAKTFRKAINRKEGICALGGTSELSSEGTQHSYSEEEKYAFVNWINKALENDPDCRHVIPMNPNTDDLFKAVGDGIVLCKMINLSVPDTIDERAINKKKLTPFIIQENLNLALNSASAIGCHVVNIGAEDLRAGKPHLVLGLLWQIIKIGLFADIELSRNEALAALLRDGETLEELMKLSPEELLLRWANFHLENSGWQKINNFSADIKDSKAYFHLLNQIAPKGQKEGEPRIDINMSGFNETDDLKRAESMLQQADKLGCRQFVTPADVVSGNPKLNLAFVANLFNKYPALTKPENQDIDWTLLEGETREERTFRNWMNSLGVNPHVNHLYADLQDALVILQLYERIKVPVDWSKVNKPPYPKLGANMKKLENCNYAVELGKHPAKFSLVGIGGQDLNDGNQTLTLALVWQLMRRYTLNVLEDLGDGQKANDDIIVNWVNRTLSEAGKSTSIQSFKDKTISSSLAVVDLIDAIQPGCINYDLVKSGNLTEDDKHNNAKYAVSMARRIGARVYALPEDLVEVKPKMVMTVFACLMGRGMKRV
chain 2: not shown

In this assay the parent is B1. Briefly: sequential low-speed/high-speed F-actin cosedimentation assay; 5 μM actin, 2 μM plastin; read off a plot.
Regarding chain 1 R594A, the response is ~0.77 proportion of T-plastin in low-speed pellet. As for chain 1 W390A, the figure is ~0.37 proportion of T-plastin in low-speed pellet.
